Source: the supplement of paper PMC9170038

Test system: MS2 coat protein
Assay: apparent KD of MS2 coat protein; designed switch direction (-1 OFF switch, 1 ON switch): 1; higher = weaker reporter binding
In short: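 On Illumina chips, designed RNA switches with common flanks were made by stalled E. coli RNA polymerase. Titrations with SNAP-549-labelled MS2 coat protein, doubling from 0.7 or 1.5 nM to 3 µM, were done with no input, with 200 uM small-molecule ligand, or with an oligonucleotide input. Apparent KD is the median per design over clusters, from curve fits of normalised cluster fluorescence.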

[1] = input ligand: microRNA oligo, concentration not stated
[2] = Eterna round: R95, input ligand: FMN 200 uM
[3] = Eterna round: R95, input ligand: microRNA oligo, concentration not stated
[4] = Eterna round: R95, input ligand: none

Row | Sequence | apparent KD of MS2 coat protein (input ligand: FMN 200 uM) [nM] | apparent KD of MS2 coat protein [1] [nM] | apparent KD of MS2 coat protein (input ligand: none) [nM] | apparent KD of MS2 coat protein [2] [nM] | apparent KD of MS2 coat protein [3] [nM] | apparent KD of MS2 coat protein [4] [nM]
1 | GCUCGAUGAGCGUUUUACAUGAGGAUCACCCAUGUACGUGGGCAGGAUAUUUACGUGCGGUGUGUAGAGAAGGGCCCAUCGAGC [SameState NG3 #70] (Eterna round: R96, puzzle: Same State NG 3) | 48.3 | 243 | 279 |  |  | 
2 | GCUCGCGGCACAGGAUAUGGGUGCCUGUACAUGAGGAUCACCCAUGUUAAGGGACGGAUUACGAACCAGAAGGGUGAGGCGGGC [Axearisar] (Eterna round: R96, puzzle: Same State NG 2) | 63.8 | 120 | 768 |  |  | 
3 | GCUCGGCUGAUGGCCCACAUGAGGAUCACCCAUGUGACUGGGCAGGAUAUCUAGAUGCAGGAUGUAGAGAAGGGCCUGCCGAGC [SameState NG3 #41] (Eterna round: R96, puzzle: Same State NG 3) | 358 | 98.8 | 155 |  |  | 
4 | GCUCGUAUCACAGCCAACAUGAGGAUCACCCAUGUAUGUUGGUAGGAUAUCUAUAUUAAGGAUAUAGAGAAGGGCCGAACGAGC [SameState NG3 #11] (Eterna round: R96, puzzle: Same State NG 3) | 121 | 126 | 145 |  |  | 
5 | GCUCGUGGUAUUGUCUACAUGAGGAUCACCCAUGUAGGUGCGGAGGAUAUCUACGUGUCUCAUGUAGAGAAGGCCGUCACGAGC [SameState NG3 #98] (Eterna round: R96, puzzle: Same State NG 3) | 20.3 | 36.2 | 89.4 |  |  | 
6 | GCUGCAAAGGCAGGAUAUGGGUUCAGAGCGGAAGUGCGCUUUGACACAUGAGGAUCACCCAUGUCCCAGAAGGGCCCAAGCGGC [Ateanso] (Eterna round: R96, puzzle: Same State NG 2) | 21.2 | 120 | 178 |  |  | 
7 | GCUGCAAGGGCAGGAUAUGGGUCCAAAGCGCAAGUGCGCUUUGGUACAUGAGGAUCACCCAUGUCCCAGAAGGGCCCAAGCGGC [Quzaceza] (Eterna round: R96, puzzle: Same State NG 2) | 15.6 | 83.1 | 140 |  |  | 
8 | GCUGCAAUUAACGCCUACAUGAGGAUCACCCAUGUAUGUAGGCAGGAUAUCGUUUGCAAAGCAAACGAGAAGGGCCGUAGUAGC [Mat - Same State NG 3 - JL Mod - D34] (Eterna round: R96, puzzle: Same State NG 3) | 28.9 | 48.9 | 73.8 |  |  | 
9 | GCUGCAAUUAACGCCUACAUGAGGAUCACCCAUGUAUGUAGGCAGGAUAUCGUUUGCUUUGCAAACGAGAAGGGCUGUAGUAGC [JL SSNG3 1.13] (Eterna round: R96, puzzle: Same State NG 3) | 67.2 | 84.5 | 108 |  |  | 
10 | GCUGCAUGGGCAGGAUAUGGGUUCAGAGCGGAAGUGCGCUUUGAUACAUGAGGAUCACCCAUGUCCCAGAAGGGCCCAAGCGGC [Laleinza] (Eterna round: R96, puzzle: Same State NG 2) | 18.4 | 53.7 | 97.3 |  |  | 
11 | GCUGGAACUCACAUGAGGAUCACCCAUGUUCCGGAAACGGCACAGGAUAUCUGUCCGAAAAGGUCAGAGAAGGGUGGAACCAGC [Fiskers NG3ss - 88] (Eterna round: R96, puzzle: Same State NG 3) | 189 | 43.5 | 90.4 |  |  | 
12 | GCUUGACAUGAGGAUCACCCAUGUCAUGCGGACACAGGAUAUCGUGGCCUGAAGCCGUCAUGAGAAGGGUGACCAA [Bibiedce] (puzzle: Same State 1) |  |  |  | 28.3 | 17.3 | 17.6
13 | GCUUGCGACGCAGGAUAUGGGUGCCUGUACAUGAGGAUCACCCAUGUUAAGGAACGGAUUACGUCUCAGAAGGGCGUGGCAGGC [Ceerce Mod] (Eterna round: R96, puzzle: Same State NG 2) | 37.1 | 31.1 | 1250 |  |  | 
14 | GGAAACAACACAGGAUAUCCAGAUGAUGAUGAAGGAGAAGGGUGUGCCCACAUGAGGAUCACCCAUGUUACAACGAAUAGAUAA [racquet 1] (Eterna round: R96, puzzle: Same State NG 1) | 457 | 666 | 1240 |  |  | 
15 | GGAAAGAGGUUAGGAUAUGCAUGUCUGGGACAUGAGGAUCACCCAUGUAAUAGAAGAAAUCUACAGUAGAAGGGACAAGGAAGG [AK SSNG2-V2-7] (Eterna round: R96, puzzle: Same State NG 2) | 89.9 | 62.7 | 75.2 |  |  | 
16 | GGAAGGAAGUCAGGAUAUGAAUGGAAAGUACAUGAGGAUCACCCAUGUUAUGGAGGAAGGAAACGUUAGAAGGGAUAAGGAAGG [AK SSNG2-V2-1.1] (Eterna round: R96, puzzle: Same State NG 2) | 67.8 | 45.2 | 63.7 |  |  | 

Row | Sequence | apparent KD of MS2 coat protein (input ligand: FMN 200 uM) [nM] | apparent KD of MS2 coat protein [1] [nM] | apparent KD of MS2 coat protein (input ligand: none) [nM] | apparent KD of MS2 coat protein [2] [nM] | apparent KD of MS2 coat protein [3] [nM] | apparent KD of MS2 coat protein [4] [nM]
17 | GGAAUAUGAUGUUACAUGAGGAUCACCCAUGUAGUAAUAACUAAGGAUAUCUGUUAAGAUAACUAAGAGAAGGUAGGAUCAUAA [AK SSNG3-V2-8.4] (Eterna round: R96, puzzle: Same State NG 3) | 22.2 | 20.5 | 22.1 |  |  | 
18 | GGAAUAUGAUGUUACAUGAGGAUCACCCAUGUAGUGAUAACUAAGGAUAUCUGAAAGGAAGGAGAGGAGAAGGUAGGAUCAUAA [AK SSNG3-V2-13] (Eterna round: R96, puzzle: Same State NG 3) | 40.1 | 35.3 | 53.2 |  |  | 
19 | GGAAUAUUUACAGGAUAUGAUUUGUAAAUUCGAUCAGAAGGGUAGAUGUCUUACACGGUUUGUUACAUGAGGAUCACCCAUGUU [SameState NG1 #11] (Eterna round: R96, puzzle: Same State NG 1) |  | 109 |  |  |  | 
20 | GGACGUCAAUAUGAAUUCCCACAUGAGGAUCACCCAUGUCAUGAGGAUAUGGAUCCUAAUUGGAUCCAGAAGGCAUGGACGUCC [Fiskers NG3ss - 37] (Eterna round: R96, puzzle: Same State NG 3) | 17.8 | 13 | 17.8 |  |  | 
21 | GGAGAACAUGAGGAUCACCCAUGUAAGAGAAGUGUAGGAUAUGUGAGGAGCAGAGGAGGAACAGAAGGACAUGGAG [JR_SS!_Sub071] (puzzle: Same State 1) |  |  |  | 29.8 | 41 | 58.3
22 | GGAGAACAUGAGGAUCACCCAUGUAAGCGUUAGCUAGGAUAUGCGGGAAGGAAGAGAGAAGCAGAAGGAGUCGGUA [JR_SS1_Sub032] (puzzle: Same State 1) |  |  |  | 34.9 | 39.4 | 67.8
23 | GGAGAACAUGAGGAUCACCCAUGUGAGAGGGAUGUAGGAUAUGUGAGGAGUAGAGGAGGGACAGAAGGACAGAGAU [JR_SS!_Sub069] (puzzle: Same State 1) |  |  |  | 28 | 62.9 | 52.6
24 | GGAGAGAGAGCGCAGGAUAUUUGAGGAGAAACAUGAGGAUCACCCAUGUGAGAGAGAGAGGAGAAAGAGAAGGGUGAGAGAGAGG [Altered State 2-15 - Jieux - Same State 2] (puzzle: Same State 2) |  |  |  | 41.9 | 52.9 | 57.8
25 | GGAGCCAAGGCAGGAUAUUCAUAUUAAUAACAUGAGGAUCACCCAUGUAAGGCCAGAAGGCCUUGGGAGAAGGGCCAUGGCUCG [Xeonanis - 13 mod2] (Eterna round: R96, puzzle: Same State NG 2) | 21.4 | 70.4 | 106 |  |  | 
26 | GGAGCCAAGGCAGGAUAUUCAUAUUAAUAACAUGAGGAUCACCCAUGUUGGGCCAGAAGGCCUUGGGAGAAGGGCCAUGGCUCG [Xeonanis - 13 mod17] (Eterna round: R96, puzzle: Same State NG 2) | 20.1 | 24.7 | 36.5 |  |  | 
27 | GGAGCCAAGGCAGGAUAUUCAUAUUAAUUACAUGAGGAUCACCCAUGUUGGGCCAGAAGGCCUUGGGAGAAGGGCCAUGGCUCG [Xeonanis - 13 mod18] (Eterna round: R96, puzzle: Same State NG 2) | 27.1 | 56.5 | 84 |  |  | 
28 | GGAGCCAAGGCAGGAUAUUCAUAUUAUAAACAUGAGGAUCACCCAUGUAGGGCCAGAAGGCCUUGGGAGAAGGGCCAUGGCUCG [Xeonanis - 13 mod16] (Eterna round: R96, puzzle: Same State NG 2) | 20.2 | 53.8 | 71 |  |  | 
29 | GGAGCCGACACCGAGGAUAUUCAUAUUAAAACAUGAGGAUCACCCAUGUAGGCCAGAAGGCCUUGGGAGAAGGCGGAUCGGCUCG [Xeonanis - 8] (puzzle: Same State 2) |  |  |  | 21.2 | 240 | 301
30 | GGAGCCGGCACCGAGGAUAUUCAUAUUAAAACAUGAGGAUCACCCAUGUACAGGAGAACCUGUUGGGAGAAGGCGGAUCGGCUCG [Xeonanis - 25] (puzzle: Same State 2) |  |  |  | 29.9 | 296 | 437
31 | GGAGCCGGCACCGAGGAUAUUCAUAUUAAAACAUGAGGAUCACCCAUGUGGGCCAGAAGGCCUUGGGAGAAGGCGGAUCGGCUCG [Xeonanis - 1] (Eterna round: R96, puzzle: Same State 2) | 18.6 | 141 | 314 |  |  | 
